{
  "source": "patent US11365402B2",
  "about": "“Internal protein tags” (Promega Corporation, priority 2014, dated 2022)",
  "molecules": {"B1": {"name": "ATG-1946: Experimental Target with the Small Bit between one large and one small domain (C-terminal FLAG) (SEQ ID NO: 2579) (protein)", "chain": "MNSFSTSAFGPVAFSLGLLLVLPAAFPAPRAEIGTGFPFDPHYVEVLGERMHYVDVGPRDGTPVLFLHGNPTSSYVWRNIIPHVAPTHRCIAPDLIGMGKSDKPDLGYFFDDHVRFMDAFIEALGLEEVVLVIHDWGSALGFHWAKRNPERVKGIAFMEFIRPIPTWDEWPEFARETFQAFRTTDVGRKLIIDQNVFIEGTLPMGVVRPLTEVEMDHYREPFLNPVDREPLWRFPNELPIAGEPANIVALVEEYMDWLHQSPVPKLLFWGTPGVLIPPAEAARLAKSLPNCKAVDIGPGLNLLQEDNPDLIGSEIARWLSTLEISGEPTTEDLYFQSDNAPMAEGGGQNHHEVVKFMDVYQRSYCHPIETLVDIFQEYPDEIEYIFKPSCVPLMRCGGCCNDEGLECVPTEESNITMQIMRIKPHQGQHIGEMSFLQHNKCECRPKKDRARQENPCGPCSERRKHLFVQDPQTCKCSCKNTDSRCKARQLELNERTCRCDKPRRGSSGVTGYRLFEEILGSDYKDDDDK"}, "B2": {"name": "ATG-1917: Experimental Target with the Small Bit (NLpep114) between two large domains (SEQ ID NO: 2578) (protein)", "chain": "MNSFSTSAFGPVAFSLGLLLVLPAAFPAPRAEIGTGFPFDPHYVEVLGERMHYVDVGPRDGTPVLFLHGNPTSSYVWRNIIPHVAPTHRCIAPDLIGMGKSDKPDLGYFFDDHVRFMDAFIEALGLEEVVLVIHDWGSALGFHWAKRNPERVKGIAFMEFIRPIPTWDEWPEFARETFQAFRTTDVGRKLIIDQNVFIEGTLPMGVVRPLTEVEMDHYREPFLNPVDREPLWRFPNELPIAGEPANIVALVEEYMDWLHQSPVPKLLFWGTPGVLIPPAEAARLAKSLPNCKAVDIGPGLNLLQEDNPDLIGSEIARWLSTLEISGEPTTEDLYFQSDNVTGYRLFEEILGSSGAPMAEGGGQNHHEVVKFMDVYQRSYCHPIETLVDIFQEYPDEIEYIFKPSCVPLMRCGGCCNDEGLECVPTEESNITMQIMRIKPHQGQHIGEMSFLQHNKCECRPKKDRARQENPCGPCSERRKHLFVQDPQTCKCSCKNTDSRCKARQLELNERTCRCDKPRR"}, "B3": {"name": "ATG-1915: Control Target with a terminal Small Bit: HALOTAG-VEGFA-165 with C-terminal NLpep114 tag (SEQ ID NO: 2577) (protein)", "chain": "MNSFSTSAFGPVAFSLGLLLVLPAAFPAPRAEIGTGFPFDPHYVEVLGERMHYVDVGPRDGTPVLFLHGNPTSSYVWRNIIPHVAPTHRCIAPDLIGMGKSDKPDLGYFFDDHVRFMDAFIEALGLEEVVLVIHDWGSALGFHWAKRNPERVKGIAFMEFIRPIPTWDEWPEFARETFQAFRTTDVGRKLIIDQNVFIEGTLPMGVVRPLTEVEMDHYREPFLNPVDREPLWRFPNELPIAGEPANIVALVEEYMDWLHQSPVPKLLFWGTPGVLIPPAEAARLAKSLPNCKAVDIGPGLNLLQEDNPDLIGSEIARWLSTLEISGEPTTEDLYFQSDNAPMAEGGGQNHHEVVKFMDVYQRSYCHPIETLVDIFQEYPDEIEYIFKPSCVPLMRCGGCCNDEGLECVPTEESNITMQIMRIKPHQGQHIGEMSFLQHNKCECRPKKDRARQENPCGPCSERRKHLFVQDPQTCKCSCKNTDSRCKARQLELNERTCRCDKPRRGSSGVTGYRLFEEIL"}},
  "test_system": "Anti-VEGF antibody",
  "experiment": "Target antibody driven NANOLUC bioluminescence complementation (NLpep114-VEGFA targets, NLpoly11S-protein G, anti-VEGF antibody)",
  "type": "cell-based",
  "settings": "HEK293T cells",
  "excerpt": "FIG. 6 depicts a schematic of how the assay components are used to screen for antibody binding to target protein by way of antibody driven NANOLUC bioluminescence complementation between NLpoly11S-fused protein G and internally tagged NLpep114 target protein. The Target, containing an internal pep114 tag, is expressed in mammalian cell culture with an IL6 signal peptide (SP). The SP directs the Target to the secretion pathway. The Target can be assayed in the media (+/−) cells. In the example, a purified preparation of the Large Bit (11S-protein G fusion protein) and Test Antibody are added directly to the mammalian cell culture. The protein G domain of the Large Bit binds to the Fc region of the Test Antibody between the Heavy Chain Constant Domains 2 and 3. If the Test Antibody binds to the Target, the Large and Small Bits can come together to form an active luminesent complex that is detected by furimazine.\nNLpep114-target fusion construct DNA was diluted into carrier DNA (pGEM3Zf(−); Promega) at bug total DNA at a mass ratio of 1:10. DNA:FuGENE complexes were formed at a ratio of 1:3 (ug DNA/ul FuGENE), according to manufacturer's protocol (Promega). One part of the transfection complex was mixed with 20 parts (volume/volume) of HEK293T cells (ATCC) suspended at a density of 2×10^5 cells/ml in DMEM (Gibco)+10% FBS (Hyclone). Cells (50 ul/well) were dispensed into 96-well tissue culture plates and incubated in a humidified, 37° C./5% CO2 incubator for 18-24 hours.\nHEK293T cells (ATCC) were transfected with three NLpep114-VEGFA DNAs as described above and incubated overnight. The cells were serum starved for 4 hours under the same conditions by replacing the media with an equal volume of (Gibco). NLpoly11S(15)pG in 1×PBS/0.1% BSA (Promega) was added (25 ul/well) to a final concentration of 0.5 ug/ml (12 nM). Anti-VEGF antibody (R&D Systems, #293) in 1×PBS/0.1% BSA (Promega) was added (25 ul/well) to a final concentration of 0-0.73 ug/ml (0-5.3 nM). After the addition of LCS Reagent (Promega, 100 ul/well, 10 μM final concentration), luciferase activity was measured using an Infinity F500 microtiter plate reader (Tecan).",
  "data": [
    {"molecule": "B1", "values": [
      {"measurement": "signal loss relative to ATG-1915 (C-terminal NLpep114 tag)", "setting": "anti-VEGF antibody", "result": 40, "unit": "%"}
    ]},
    {"molecule": "B2", "values": [
      {"measurement": "signal reduction relative to ATG-1915 (C-terminal NLpep114 tag)", "setting": "anti-VEGF antibody", "result": 5, "unit": "fold"}
    ]},
    {"molecule": "B3", "values": [
      {"measurement": "overall luminescence signal, compared among constructs", "setting": "anti-VEGF antibody", "result": "highest signal"},
      {"measurement": "signal over background (increase in bioluminescence with antibody over assay components without antibody)", "setting": "anti-VEGF antibody 0-0.73 ug/ml (0-5.3 nM), NLpoly11S-protein G 0.5 ug/ml (12 nM)", "result": "over 400 fold"}
    ]}
  ]
}
